Among the data in CN116472284A (UNIV CALIFORNIA, dated 2023) are EC50 and Kd values, retold here.

Test [1] addresses T1, SARS-CoV-2 spike receptor binding domain (RBD) (SARS-CoV-2, UniProt P0DTC2 328-533).
For test [2], the target named is T1, SARS-CoV-2 spike receptor binding …. Briefly: SPR, biotinylated RBD on CAP chip. For orientation: SPR reads the build-up and loss of mass on a sensor chip optically.

As usually defined, the EC50 is the midpoint of the concentration-response curve. As usually defined, the Kd is the free concentration of one partner at which half of the binding sites on the other are occupied at equilibrium, for simple one-to-one binding. A low value points to a tighter complex.

B1: Nb6 (VHH)
VHH: QVQLVESGGGLVQAGGSLRLSCAASGIIFGRNAMGWYRQAPGKERELVAGITRRGSITYYADSVKGRFTISRDNAKNTVYLQMNSLKPEDTAVYYCAADPASPAPGDYWGQGTQVTVSS
notes: also called AeroNab6; NbCOV6
B1 returned a 50% effective concentration (EC50) in test [1] of 190 nM. The Kd in test [2] was 41 nM.
